Laboratory results reported in PMC5514047.

Target: human ribosomal stalk protein P2 lacking the last 16 amino acids (P2ΔC) (human) (UniProt P05387)
Assay: native MS

Substance: human ribosomal stalk protein P2 lacking the last 16 amino acids (P2ΔC) (from UniProt P05387 1-99) (domain or fragment)
- stoichiometry N: 2
